Source: the supplement of paper PMC10899765

These sequences were tested on MCF10A (assay: 5+ nucleoli phenotype percent effect (relative to siNT 0% and siKIF11 100%); higher = more cells with five or more nucleoli). Conditions: 20 nM; 72 h.
Description: (§1)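 After 72 h, cells were fixed and stained with Hoechst and anti-fibrillarin, and nucleoli per nucleus were counted with CellProfiler. Values are plate-adjusted percent effect for the one-nucleolus and 5+ nucleoli phenotypes, normalised to siNT (0%) and to the positive controls siNOL11 or siKIF11 (100%), as the mean of biological triplicates. Percent viability is the nuclei count relative to siNT.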

Sequence | 5+ nucleoli phenotype percent effect [%]
AGCUCGGUCUGAGGCCCCUCAGU [hsa-miR-423-3p] | -11.8
CUCCUAUAUGAUGCCUUUCUUC [hsa-miR-337-3p] | 2.51
UGAUAUGUUUGAUAUUGGGUU [hsa-miR-190b] | -11.2
UUCACAAGGAGGUGUCAUUUAU [hsa-miR-513b] | -29.7
CCUGCGUGUUUUCUGUCCAA [hsa-miR-4520b-5p] | -6.92
CAAUCACUAACUCCACUGCCAU [hsa-miR-34b-3p] | 11
UUGCUUGAACCCAGGAAGUGGA [hsa-miR-1273e] | -48.1
CACGGCAAAAGAAACAAUCCA [hsa-miR-4445-3p] | 25.7
AUAUGCCUGGCUAGCUCCUC [hsa-miR-4633-5p] | -31.2
AAAGGUAACUGUGAUUUUUGCU [hsa-miR-548ba] | 38.2
UUAUAAUACAACCUGAUAAGUG [hsa-miR-374a-5p] | 26.1
AGGCUCUAACUGGCUUUCCCUGCA [hsa-miR-6822-3p] | -24.9
AAAAGUAAUUGCGGUUUUUGCC [hsa-miR-548o-5p] | 43.1
AUGGAGAAGGCUUCUGA [hsa-miR-4531] | -33.8
ACGGGUUAGGCUCUUGGGAGCU [hsa-miR-125b-1-3p] | 15.9
ACUCAAAAUGGGGGCGCUUUCC [hsa-miR-373-5p] | 34.3
AACAUUCAACGCUGUCGGUGAGU [hsa-miR-181a-5p] | 0.638
AAAUGUCACCUUUUUGAGAGGA [hsa-miR-513b-3p] | -25.5
UGGGCGAGGGCGGCUGAGCGGC [hsa-miR-6729-5p] | -3.58
AGGAGGCAUCUUGAGAAAUGGA [hsa-miR-3612] | 5.34

Sequence | 5+ nucleoli phenotype percent effect [%]
ACUGAGCCUCUCUCUCUCCAG [hsa-miR-6751-3p] | -22.5
UUUGUAUGGAUAUGUGUGUGUAU [hsa-miR-3149] | -7.06
CACACACACACACACACGUAU [hsa-miR-8485] | -36.9
CUUUCAGUCGGAUGUUUGCAGC [hsa-miR-30a-3p] | -31
CAAGUCUUAUUUGAGCACCUGUU [hsa-miR-1264] | 21.1
GUGCAUUGCUGUUGCAUUGC [hsa-miR-33b-5p] | 36
CAAAGACUGCAAUUACUUUUGCG [hsa-miR-548u] | 43.4
UAUUCAGAAAGGUGCCAGUCA [hsa-miR-892c-5p] | 9.47
UGGGAGGAGGGGAUCUUGGG [hsa-miR-7106-5p] | 21.2
AGAAGGCCUUUCCAUCUCUGU [hsa-miR-4493] | -36.6
CAGGAGUGGGGGGUGGGACGU [hsa-miR-4433b-3p] | 3.45
AGACUGACGGCUGGAGGCCCAU [hsa-miR-4513] | 21.1
GCAGGUGCUCACUUGUCCUCCU [hsa-miR-764] | -23.5
ACGGAGACGACAAGACUGUGCUG [hsa-miR-5091] | -11.8
CUAUACAAUCUAUUGCCUUCCC [hsa-let-7f-1-3p] | -25
AAUUGCACGGUAUCCAUCUGUA [hsa-miR-363-3p] | -15.8
AAAAGUGCUUACAGUGCAGGUAG [hsa-miR-106a-5p] | 22.1
UGGCUGUUGGAGGGGGCAGGC [hsa-miR-4687-3p] | -1.42
GGUAUCCGUUUGGGGAUGGU [hsa-miR-3713] | -27.6
UGUGGGACUGCAAAUGGGAG [hsa-miR-4648] | -30.5

Sequence | 5+ nucleoli phenotype percent effect [%]
AGUAGAGAGGAAAAGUUAGGGUC [hsa-miR-6832-5p] | 20.4
GGGACCAUCCUGCCUGCUGUGG [hsa-miR-3619-3p] | 20.9
UUCAAGUAAUCCAGGAUAGGCU [hsa-miR-26a-5p] | 17.8
ACUCAUUCUCCUCUGUCCAG [hsa-miR-6758-3p] | 81.4
UUCGGUAUACUUUGUGAAUUGG [hsa-miR-4798-5p] | -0.701
CAGGGAACAGCUGGGUGAGCUGCU [hsa-miR-6750-5p] | 27.2
CGCCGCGCGCAUCGGCUCAGC [hsa-miR-6869-3p] | -29.2
UUACGGACCAGCUAAGGGAGGC [hsa-miR-4788] | 9.13
UGAUUGUCUUCAUAUCUAGAAC [hsa-miR-4782-3p] | -13.9
AAAAGUACUUGCGGAUUU [hsa-miR-548av-5p] | 9.21
ACAGGUGAGGUUCUUGGGAGCC [hsa-miR-125a-3p] | -0.517
AAUGCACCCGGGCAAGGAUUCU [hsa-miR-501-3p] | -14.1
CCCAGCAGGACGGGAGCG [hsa-miR-4530] | 43.3
UUCUCAAGAGGGAGGCAAUCAU [hsa-miR-514b-5p] | 36.5
UAAGUGCUUCCAUGUUUUAGUAG [hsa-miR-302b-3p] | 33.7
CGAGGGCAUUUCAUGAUGCAGGC [hsa-miR-3616-3p] | -22
CCCUGUGCCCGGCCCACUUCUG [hsa-miR-1914-5p] | 1.43
AACUCACGAAGUAUACCGAAGU [hsa-miR-4798-3p] | 11.4
AUCUAAAUGCAGCAUGCCAGUC [hsa-miR-4799-5p] | 15

These sequences were tested on MCF10A (assay: one-nucleolus phenotype percent effect (relative to siNT 0% and siNOL11 100%); higher = more cells with one nucleolus (ribosome biogenesis inhibition)). Conditions: 20 nM; 72 h.
Description: as §1

Sequence | one-nucleolus phenotype percent effect [%]
AGCUCGGUCUGAGGCCCCUCAGU [hsa-miR-423-3p] | 19.5
CUCCUAUAUGAUGCCUUUCUUC [hsa-miR-337-3p] | -11
UGAUAUGUUUGAUAUUGGGUU [hsa-miR-190b] | 21.8
UUCACAAGGAGGUGUCAUUUAU [hsa-miR-513b] | 14.2
CCUGCGUGUUUUCUGUCCAA [hsa-miR-4520b-5p] | 1.66
CAAUCACUAACUCCACUGCCAU [hsa-miR-34b-3p] | -6.72
UUGCUUGAACCCAGGAAGUGGA [hsa-miR-1273e] | 53.6
CACGGCAAAAGAAACAAUCCA [hsa-miR-4445-3p] | -16.4
AUAUGCCUGGCUAGCUCCUC [hsa-miR-4633-5p] | 27.8
AAAGGUAACUGUGAUUUUUGCU [hsa-miR-548ba] | -24.2
UUAUAAUACAACCUGAUAAGUG [hsa-miR-374a-5p] | -14.4
AGGCUCUAACUGGCUUUCCCUGCA [hsa-miR-6822-3p] | 32.4
AAAAGUAAUUGCGGUUUUUGCC [hsa-miR-548o-5p] | -26.8
AUGGAGAAGGCUUCUGA [hsa-miR-4531] | 56.1
ACGGGUUAGGCUCUUGGGAGCU [hsa-miR-125b-1-3p] | 13.6
ACUCAAAAUGGGGGCGCUUUCC [hsa-miR-373-5p] | -11.8
AACAUUCAACGCUGUCGGUGAGU [hsa-miR-181a-5p] | 2.31
AAAUGUCACCUUUUUGAGAGGA [hsa-miR-513b-3p] | -7.38
UGGGCGAGGGCGGCUGAGCGGC [hsa-miR-6729-5p] | 6.3
AGGAGGCAUCUUGAGAAAUGGA [hsa-miR-3612] | 33.4
ACUGAGCCUCUCUCUCUCCAG [hsa-miR-6751-3p] | -10.3
UUUGUAUGGAUAUGUGUGUGUAU [hsa-miR-3149] | 2.3
CACACACACACACACACGUAU [hsa-miR-8485] | 57.6
CUUUCAGUCGGAUGUUUGCAGC [hsa-miR-30a-3p] | 1.29
CAAGUCUUAUUUGAGCACCUGUU [hsa-miR-1264] | -11.7
GUGCAUUGCUGUUGCAUUGC [hsa-miR-33b-5p] | -2.4
CAAAGACUGCAAUUACUUUUGCG [hsa-miR-548u] | -31.1
UAUUCAGAAAGGUGCCAGUCA [hsa-miR-892c-5p] | -3.71
UGGGAGGAGGGGAUCUUGGG [hsa-miR-7106-5p] | -7.27
